Reference: patent US20200002425A1
pEC50, pKd: −log10 of the molar value.

How the values were obtained:
[1] = target: human PD-L1 expressed on cells (H441 lung tumor cells; MDA-MB-231 cells; artificial antigen presenting cells) (human) (UniProt Q9NZQ7); assay: cell-based or functional assay
TGFβ1 (human) = TGFβ1 (human) (UniProt P01137); assay: SPR, binder immobilized by Fc capture, TGFβ1 as analyte, OneStep kinetic analysis on Pioneer FE (Fortebio)
TGFβ2 = TGFβ2 (UniProt P61812); assay: SPR, binder immobilized by Fc capture, TGFβ2 as analyte, OneStep kinetic analysis on Pioneer FE (Fortebio)
Chain of TGFβ2 (P61812 303-414 limits assumed): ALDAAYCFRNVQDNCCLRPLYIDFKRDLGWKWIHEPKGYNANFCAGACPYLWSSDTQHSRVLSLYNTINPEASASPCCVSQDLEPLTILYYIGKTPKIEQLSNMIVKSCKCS

[2] = target: PD-L1 (soluble analyte in the SPR assay) (UniProt Q9NZQ7); assay: SPR, binder immobilized by Fc capture, PD-L1 as analyte, OneStep kinetic analysis on Pioneer FE (Fortebio)
Chain of PD-L1 (soluble analyte in the SPR assay) (Q9NZQ7 19-238 limits assumed): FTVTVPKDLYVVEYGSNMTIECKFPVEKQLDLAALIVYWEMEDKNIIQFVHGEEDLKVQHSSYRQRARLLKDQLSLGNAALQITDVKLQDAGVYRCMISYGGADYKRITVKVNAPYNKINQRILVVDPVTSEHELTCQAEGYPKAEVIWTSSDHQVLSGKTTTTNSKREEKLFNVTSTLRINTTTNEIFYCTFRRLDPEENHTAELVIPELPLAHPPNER

[3] = target: human PD-L1 expressed on cells (H441 lung tumor cells; MDA-MB-231 cells; artificial antigen presenting cells) (human) (UniProt Q9NZQ7); assay: flow cytometry on PD-L1+ H441 cells, APC anti-human IgG Fc detection; the table has no unit, pM is from the graph's axis Concentration(pM)

Chain of human PD-L1 expressed on cells (H441 lung tumor cells; MDA-MB-231 cells; artificial antigen presenting cells) (human) (Q9NZQ7 19-290): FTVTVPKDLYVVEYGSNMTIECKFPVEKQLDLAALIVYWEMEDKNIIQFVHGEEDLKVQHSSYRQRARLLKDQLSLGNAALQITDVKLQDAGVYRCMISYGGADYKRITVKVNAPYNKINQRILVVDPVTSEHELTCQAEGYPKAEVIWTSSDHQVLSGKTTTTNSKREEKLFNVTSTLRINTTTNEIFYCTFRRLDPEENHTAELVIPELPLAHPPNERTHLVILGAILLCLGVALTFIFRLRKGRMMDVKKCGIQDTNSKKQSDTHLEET
Chain of TGFβ1 (human) (P01137 279-390 limits assumed): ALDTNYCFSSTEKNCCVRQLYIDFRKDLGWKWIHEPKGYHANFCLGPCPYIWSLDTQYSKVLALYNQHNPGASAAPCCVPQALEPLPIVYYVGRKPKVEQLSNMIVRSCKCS

Substance: αPDL1/TXM/TGFβRII (N-810A); IL-15N72D:αPDL1/IL-15RαSu/Fc/TGFβRII fusion protein complex (from UniProt P40933 49-162) (Fc fusion)
- maximal killing, ADCC against PD-L1-positive MDA-MB-231 breast tumor cells [1]: 30%
- pKd (TGFβ1 (human)): 9.62
- pKd (TGFβ2): 9.28
- pKd [2]: 8.12
- pEC50 [3]: 9.74
